# Starred links: 1 amine or outer side, 2 acyl side, 3 side chain; linkers in the order of their positions; H or OH if unused. Non-standard residues stand in square brackets, D forms with d. Groups on a side chain read outwards from the residue. No end group written: not given here. *: point of attachment. C18 diacid = O=C(O)CCCCCCCCCCCCCCCCC(=O)*; γGlu = O=C(O)[C@H](CCC(=O)[*:2])N[*:1]; Palmitoyl = CCCCCCCCCCCCCCCC(=O)*; AEEA = NCCOCCOCC(=O)O; Aib = CC(C)(N)C(=O)O
# B1: SEQ ID NO: 98 (peptide)
# peptide: IVLSLDVPIKLK([AEEA-AEEA-γGlu-C18 diacid])QKLLKQERQKK[Aib]REQAETNKQILAQV-NH2
# modifications: N-terminus assumed
# SMILES: CC[C@H](C)[C@H](N)C(=O)N[C@H](C(=O)N[C@@H](CC(C)C)C(=O)N[C@@H](CO)C(=O)N[C@@H](CC(C)C)C(=O)N[C@@H](CC(=O)O)C(=O)N[C@H](C(=O)N1CCC[C@H]1C(=O)N[C@H](C(=O)N[C@@H](CCCCN)C(=O)N[C@@H](CC(C)C)C(=O)N[C@@H](CCCCNC(=O)COCCOCCNC(=O)COCCOCCNC(=O)CC[C@H](NC(=O)CCCCCCCCCCCCCCCCC(=O)O)C(=O)O)C(=O)N[C@@H](CCC(N)=O)C(=O)N[C@@H](CCCCN)C(=O)N[C@@H](CC(C)C)C(=O)N[C@@H](CC(C)C)C(=O)N[C@@H](CCCCN)C(=O)N[C@@H](CCC(N)=O)C(=O)N[C@@H](CCC(=O)O)C(=O)N[C@@H](CCCNC(=N)N)C(=O)N[C@@H](CCC(N)=O)C(=O)N[C@@H](CCCCN)C(=O)N[C@@H](CCCCN)C(=O)NC(C)(C)C(=O)N[C@@H](CCCNC(=N)N)C(=O)N[C@@H](CCC(=O)O)C(=O)N[C@@H](CCC(N)=O)C(=O)N[C@@H](C)C(=O)N[C@@H](CCC(=O)O)C(=O)N[C@H](C(=O)N[C@@H](CC(N)=O)C(=O)N[C@@H](CCCCN)C(=O)N[C@@H](CCC(N)=O)C(=O)N[C@H](C(=O)N[C@@H](CC(C)C)C(=O)N[C@@H](C)C(=O)N[C@@H](CCC(N)=O)C(=O)N[C@H](C(N)=O)C(C)C)[C@@H](C)CC)[C@@H](C)O)[C@@H](C)CC)C(C)C)C(C)C
# B2: SEQ ID NO: 99 (peptide)
# peptide: IVLSLDVPIKLK([AEEA-AEEA-γGlu-C18 diacid])KILLKQERQKK[Aib]REQAEKNKQILAQV-NH2
# modifications: N-terminus assumed
# SMILES: CC[C@H](C)[C@H](N)C(=O)N[C@H](C(=O)N[C@@H](CC(C)C)C(=O)N[C@@H](CO)C(=O)N[C@@H](CC(C)C)C(=O)N[C@@H](CC(=O)O)C(=O)N[C@H](C(=O)N1CCC[C@H]1C(=O)N[C@H](C(=O)N[C@@H](CCCCN)C(=O)N[C@@H](CC(C)C)C(=O)N[C@@H](CCCCNC(=O)COCCOCCNC(=O)COCCOCCNC(=O)CC[C@H](NC(=O)CCCCCCCCCCCCCCCCC(=O)O)C(=O)O)C(=O)N[C@@H](CCCCN)C(=O)N[C@H](C(=O)N[C@@H](CC(C)C)C(=O)N[C@@H](CC(C)C)C(=O)N[C@@H](CCCCN)C(=O)N[C@@H](CCC(N)=O)C(=O)N[C@@H](CCC(=O)O)C(=O)N[C@@H](CCCNC(=N)N)C(=O)N[C@@H](CCC(N)=O)C(=O)N[C@@H](CCCCN)C(=O)N[C@@H](CCCCN)C(=O)NC(C)(C)C(=O)N[C@@H](CCCNC(=N)N)C(=O)N[C@@H](CCC(=O)O)C(=O)N[C@@H](CCC(N)=O)C(=O)N[C@@H](C)C(=O)N[C@@H](CCC(=O)O)C(=O)N[C@@H](CCCCN)C(=O)N[C@@H](CC(N)=O)C(=O)N[C@@H](CCCCN)C(=O)N[C@@H](CCC(N)=O)C(=O)N[C@H](C(=O)N[C@@H](CC(C)C)C(=O)N[C@@H](C)C(=O)N[C@@H](CCC(N)=O)C(=O)N[C@H](C(N)=O)C(C)C)[C@@H](C)CC)[C@@H](C)CC)[C@@H](C)CC)C(C)C)C(C)C
# B3: SEQ ID NO: 96 (peptide)
# peptide: IVLSLDVPIKLK([AEEA-AEEA-γGlu-C18 diacid])QILLKQERQKKEREQAETNKQILAQV-NH2
# modifications: N-terminus assumed
# SMILES: CC[C@H](C)[C@H](N)C(=O)N[C@H](C(=O)N[C@@H](CC(C)C)C(=O)N[C@@H](CO)C(=O)N[C@@H](CC(C)C)C(=O)N[C@@H](CC(=O)O)C(=O)N[C@H](C(=O)N1CCC[C@H]1C(=O)N[C@H](C(=O)N[C@@H](CCCCN)C(=O)N[C@@H](CC(C)C)C(=O)N[C@@H](CCCCNC(=O)COCCOCCNC(=O)COCCOCCNC(=O)CC[C@H](NC(=O)CCCCCCCCCCCCCCCCC(=O)O)C(=O)O)C(=O)N[C@@H](CCC(N)=O)C(=O)N[C@H](C(=O)N[C@@H](CC(C)C)C(=O)N[C@@H](CC(C)C)C(=O)N[C@@H](CCCCN)C(=O)N[C@@H](CCC(N)=O)C(=O)N[C@@H](CCC(=O)O)C(=O)N[C@@H](CCCNC(=N)N)C(=O)N[C@@H](CCC(N)=O)C(=O)N[C@@H](CCCCN)C(=O)N[C@@H](CCCCN)C(=O)N[C@@H](CCC(=O)O)C(=O)N[C@@H](CCCNC(=N)N)C(=O)N[C@@H](CCC(=O)O)C(=O)N[C@@H](CCC(N)=O)C(=O)N[C@@H](C)C(=O)N[C@@H](CCC(=O)O)C(=O)N[C@H](C(=O)N[C@@H](CC(N)=O)C(=O)N[C@@H](CCCCN)C(=O)N[C@@H](CCC(N)=O)C(=O)N[C@H](C(=O)N[C@@H](CC(C)C)C(=O)N[C@@H](C)C(=O)N[C@@H](CCC(N)=O)C(=O)N[C@H](C(N)=O)C(C)C)[C@@H](C)CC)[C@@H](C)O)[C@@H](C)CC)[C@@H](C)CC)C(C)C)C(C)C
# B4: SEQ ID NO: 97 (peptide)
# peptide: IVLSLDVPIKLK([AEEA-AEEA-γGlu-C18 diacid])QKLLKQERQKKQREQAETNKQILAQV-NH2
# modifications: N-terminus assumed
# SMILES: CC[C@H](C)[C@H](N)C(=O)N[C@H](C(=O)N[C@@H](CC(C)C)C(=O)N[C@@H](CO)C(=O)N[C@@H](CC(C)C)C(=O)N[C@@H](CC(=O)O)C(=O)N[C@H](C(=O)N1CCC[C@H]1C(=O)N[C@H](C(=O)N[C@@H](CCCCN)C(=O)N[C@@H](CC(C)C)C(=O)N[C@@H](CCCCNC(=O)COCCOCCNC(=O)COCCOCCNC(=O)CC[C@H](NC(=O)CCCCCCCCCCCCCCCCC(=O)O)C(=O)O)C(=O)N[C@@H](CCC(N)=O)C(=O)N[C@@H](CCCCN)C(=O)N[C@@H](CC(C)C)C(=O)N[C@@H](CC(C)C)C(=O)N[C@@H](CCCCN)C(=O)N[C@@H](CCC(N)=O)C(=O)N[C@@H](CCC(=O)O)C(=O)N[C@@H](CCCNC(=N)N)C(=O)N[C@@H](CCC(N)=O)C(=O)N[C@@H](CCCCN)C(=O)N[C@@H](CCCCN)C(=O)N[C@@H](CCC(N)=O)C(=O)N[C@@H](CCCNC(=N)N)C(=O)N[C@@H](CCC(=O)O)C(=O)N[C@@H](CCC(N)=O)C(=O)N[C@@H](C)C(=O)N[C@@H](CCC(=O)O)C(=O)N[C@H](C(=O)N[C@@H](CC(N)=O)C(=O)N[C@@H](CCCCN)C(=O)N[C@@H](CCC(N)=O)C(=O)N[C@H](C(=O)N[C@@H](CC(C)C)C(=O)N[C@@H](C)C(=O)N[C@@H](CCC(N)=O)C(=O)N[C@H](C(N)=O)C(C)C)[C@@H](C)CC)[C@@H](C)O)[C@@H](C)CC)C(C)C)C(C)C
# Target: human corticotropin-releasing factor 2α (CRF2 α receptor) (human), Q13324
# Sequence (Q13324 20-411): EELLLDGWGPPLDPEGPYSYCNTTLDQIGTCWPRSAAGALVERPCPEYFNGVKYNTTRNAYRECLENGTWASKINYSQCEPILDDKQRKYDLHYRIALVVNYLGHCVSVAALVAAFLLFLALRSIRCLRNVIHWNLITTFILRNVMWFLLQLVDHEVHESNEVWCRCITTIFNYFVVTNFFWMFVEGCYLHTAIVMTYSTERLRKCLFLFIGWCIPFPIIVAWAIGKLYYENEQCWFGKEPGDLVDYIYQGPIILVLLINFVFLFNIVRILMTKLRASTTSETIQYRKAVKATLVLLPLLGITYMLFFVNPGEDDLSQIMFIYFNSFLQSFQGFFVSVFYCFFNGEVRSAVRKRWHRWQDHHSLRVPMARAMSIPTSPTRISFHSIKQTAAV
# Test: cell-based or functional assay
"EC50 [nM], 0% HSA","EC50 [nM], 0.1% HSA",Binder
2.36 nM,–,B1
0.06 nM,1.6 nM,B2
0.02 nM,0.03 nM,IVLSLD[dV]PTKLK([γGlu-Palmitoyl])QKLLKQERQRKEREQAEKNARILARV-NH2 [SEQ ID NO: 7]
0.38 nM,–,B3
1.66 nM,–,B4
